Data set [1] deals with T1, HIS-CNBP (Homo sapiens, UniProt P62633 1-177). Put plainly: competition; unlabeled G20 competes with biotin-G20; Chemiluminescent EMSA Kit (Thermo) binding buffer, room temperature, 20 min, 5% polyacrylamide gel; salt and pH not stated. The following applies: protein: recombinant; tags: His (pET-28a); potential G4.
Data set [2] deals with T1, HIS-CNBP. In words: EMSA; Chemiluminescent EMSA Kit (Thermo) binding buffer, room temperature, 20 min, 5% polyacrylamide gel; salt and pH not stated. The conditions noted are these: protein: recombinant; tags: His (pET-28a); potential G4.

T1 sequence (P62633 whole entry): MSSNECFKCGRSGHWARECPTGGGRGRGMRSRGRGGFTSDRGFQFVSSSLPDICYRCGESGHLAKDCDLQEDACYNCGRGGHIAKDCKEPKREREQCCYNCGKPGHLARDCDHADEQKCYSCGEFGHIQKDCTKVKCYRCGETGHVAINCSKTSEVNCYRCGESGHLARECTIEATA

In the case of GGGCTGGCGCGGAGGGAGGG (ssDNA) [G20 unlabeled], in data set [1], the binding result is “binds”.

Take GGGCTGGCGCGGAGGGAGGG (ssDNA) [Biotin-G20]: the binding result in data set [2] is given as “binds”.

The record behind these values is PMC6193743, “Phosphoglucomutase 1 inhibits hepatocellular carcinoma progression by regulating glucose trafficking”.
